Assay results: patent publication US20220041746A1 (Sanofi, published 2022)
Several values for one entry are separate records, joined by “and”; a condition that tells them apart may be missing. Equal entries are not always repeated.

Columns and labels:
[1] = target: T1, recombinant human CD38 (SPR of Example 4) (human, UniProt P28907 45-300, limits assumed); experiment: SPR; KD rounded to an integer; first value of the pair, taken for CD3mid
[2] = target: human CD38 (Cambridge Biologics LLC Cat #03-01-0369) (human, UniProt P28907 43-300); experiment: ELISA on coated hCD38-His
Experimental: The binding properties of the purified antibodies were analyzed either using ELISA or SPR methods. For ELISA, corresponding antigens for each binding site in the trispecific binding protein were used to coat a 96-well Immuno Plate (Nunc 439454, Thermo Fisher Scientific) overnight at 4° C. using 2 μg/ml each antigen m PBS(pH7.4). The coated plate was blocked using 5% skim milk 12% BSA in PBS for one hour at RT, followed by washing with PBS+[…] three times (Aqua Max 400, Molecular Devices). Serial dilution of antibodies (trispecific and control Abs) were prepared and added onto the ELISA plates (100 μl/well in duplicate), incubated at RT for one hour, followed by washing 5 times with PBS+0.25% Tween 20.
The reaction was terminated by adding 50 μl 1M H₂SO₄, and OD₄₅₀ was measured using SpectraMax M5 (Molecular Devices) and analyzed using SoltMax Pro6.3 software (Molecular Devices). The final data was transferred to GraphPad Prism software (GraphPad Software, CA. USA), and plotted as shown. EC50 was calculated using the same software.

[3] = target: T2, human CD38 expressed on the cell surface (human, UniProt P28907 1-300); experiment: flow cytometry on 300.19 huCD38 cells (PréB hCD38)
T2 construct: whole, on cells; also called hCD38-expressing cells; huCD38
Experimental: (§1) The recombinant cell line was described by J. Deckket et al. 2014 Clin. Cancer Res 20:4574-4583. […] Antibody binding was evaluated after centrifugation and resuspension of cells by adding 200 μl/well PBS 1% BSA and read using Guava® easyCyte™ 8HT Flow Cytometry System. Apparent KD and EC50 values were estimated using BIOST®T-BINDING and BIOST®T-SPEED software, respectively.

[4] = target: T1, recombinant human CD38 (SPR of Example …); experiment: SPR (column 'KD value against rec. protein by SPR (nM)'); first value of the pair, taken for CD3mid
[5] = target: T2, human CD38 expressed on the cell surface; experiment: flow cytometry, 'Apparent KD value against rec. cells by FACS (nM)'; single value of the mid/low row, equal to the EC50 of the CD3mid protein in FIG. 6B
Experimental: as §1

[6] = target: T3, cynomolgus monkey CD38 expressed on the cell surface (cynomolgus monkey, UniProt Q5VAN0 1-301); experiment: flow cytometry on 300.19 cynoCD38 cells (PréB cCD38)
T3 construct: whole, on cells; also called cCD38-expressing cells
Experimental: as §1

[7] = target: T2, human CD38 expressed on the cell surface; experiment: flow cytometry (column FACS EC50 nM, hu)
Experimental: as §1, with “Clin” for “Clin.”, “μL/well” for “μl/well”, “easvCyte™” for “easyCyte™”, “BIOST@T-BINDING” for “BIOST®T-BINDING”, “BIOST@T-SPEED” for “BIOST®T-SPEED”

[8] = target: T4, cCD38-his (SEQ ID NO: 4) (cynomolgus monkey, UniProt Q5VAN0 46-301); experiment: SPR, mAb captured via anti-human Fc, soluble CD38-his injected
T4 construct: His-tagged soluble protein; also called cyno CD38-histag; cynoCD38::Histag
Experimental: (§2) The binding properties of the anti-huCD38 mabs were evaluated using a BIAcore 2000 (BIAcore Inc., Uppsala, Ni). […] The surface was regenerated between injections using 30 μL of 50 mM NaOH-1 M NaCl. Individual sensorgrams wore analyzed using BIAsimulation software.

[9] = target: T5, hCD38-his (SEQ ID NO: 2) (human, UniProt P28907 45-300); experiment: as above
T5 construct: His-tagged soluble protein derived from isoform A; also called human CD38-histag; hCD38::Histag
Experimental: as §2

[10] = target: T3, cynomolgus monkey CD38 expressed on the …; experiment: flow cytometry (column FACS EC50 nM, cyno)
Experimental: as §1, with “Clin” for “Clin.”, “μL/well” for “μl/well”, “easvCyte™” for “easyCyte™”, “BIOST@T-BINDING” for “BIOST®T-BINDING”, “BIOST@T-SPEED” for “BIOST®T-SPEED”

[11] = target: T4, cCD38-his (SEQ ID NO: 4); experiment: ELISA (column ELISA EC50 nM, cyno)
[12] = target: T3, cynomolgus monkey CD38 expressed on the …; experiment: flow cytometry on preB::300.19 cells, apparent KD
Experimental: as §1, with “Clin” for “Clin.”, “μL/well” for “μl/well”, “easvCyte™” for “easyCyte™”, “BIOST@T-BINDING” for “BIOST®T-BINDING”, “BIOST@T-SPEED” for “BIOST®T-SPEED”

[13] = target: T2, human CD38 expressed on the cell surface; experiment: flow cytometry on preB::300.19 cells, apparent KD
Experimental: as §1, with “Clin” for “Clin.”, “μL/well” for “μl/well”, “easvCyte™” for “easyCyte™”, “BIOST@T-BINDING” for “BIOST®T-BINDING”, “BIOST@T-SPEED” for “BIOST®T-SPEED”

[14] = target: T5, hCD38-his (SEQ ID NO: 2); experiment: ELISA (column ELISA EC50 nM, hu)
[15] = target: human CD28 (SPR of Example 4) (human, UniProt P10747 19-152, limits assumed); experiment: SPR, mono-, bi- and trispecific formats (FIG. 5)

B1: CD38VH1×CD28sup×CD3mid IgG4 (other)
VH 1: QVQLVQSGAEVVKPGASVKVSCKASGYTFTSYAMHWVKEAPGQRLEWIGYIYPGQGGTNYNQKFQGRATLTADTSASTAYMELSSLRSEDTAVYFCARTGGLRRAYFTYWGQGTLVTVSS
VL 1: DIVLTQSPATLSLSPGERATISCRASQSVSSYGQGFMHWYQQKPGQPPRLLIYGASSRATGIPARFSGSGSGTDFTLTISPLEPEDFAVYYCQQNKEDPWTFGGGTKLEIK
VH 2: QVQLVQSGAEVVKPGASVKVSCKASGYTFTSYYIHWVRQAPGQGLEWIGSIYPGNVNTNYAQKFQGRATLTVDTSISTAYMELSRLRSDDTAVYYCTRSHYGLDWNFDVWGKGTTVTVSS
VL 2: DIQMTQSPSSLSASVGDRVTITCQASQNIYVWLNWYQQKPGKAPKLLIYKASNLHTGVPSRFSGSGSGTDFTLTISSLQPEDIATYYCQQGQTYPYTFGQGTKLEIK
VH 3: QVQLVESGGGVVQPGRSLRLSCAASGFTFTKAWMHWVRQAPGKQLEWVAQIKDKSNSYATYYADSVKGRFTISRDDSKNTLYLQMNSLRAEDTAVYYCRGVYYALSPFDYWGQGTLVTVSS
VL 3: DIVMTQTPLSLSVTPGQPASISCKSSQSLVHNNANTYLSWYLQKPGQSPQSLIYKVSNRFSGVPDRFSGSGSGTDFTLKISRVEAEDVGVYYCGQGTQYPFTFGSGTKVEIK
notes: also called anti-CD38(VH1)×CD28(sup)×CD3(mid)
[1]
  Kd: 4 nM
[2]
  EC50 (read off the curve): ~3 nM
[3]
  EC50: 11 nM and 1.67 µg/mL
[4]
  Kd: 4 nM
[5]
  Kd: 11 nM
[6]
  EC50: 17 nM and 2.53 µg/mL

B2: mAb4 (antibody, human IgG1, kappa, V domains shown)
VH: QVQLVQSGAEVVKSGASVKVSCKASGYTFTSFNMHWVKEAPGQGLEWIGYIYPGNGGTNYNQKFQGRATLTADTSASTAYMEISSLRSEDTAVYFCARTGGLRRAYFTYWGQGTLVTVSS
VL: DIVLTQSPATLSLSPGERATISCRASESVDSYGNGFMHWYQQKPGQPPRLLIYLASSRATGIPARFSGSGSGTDFTLTISPLEPEDFAVYYCQQNKEDPWTFGGGTKLEIKR
notes: also called antiCD38_C2-CD38-1_VH5-VL3
[7]
  EC50: 0.55 nM
[8]
  Kd: 1.14 nM
  koff: 0.000201 s⁻¹
[9]
  Kd: 0.822 nM
  koff: 0.000529 s⁻¹
[10]
  EC50: 1.15 nM
[11]
  EC50: 0.17 nM
[12]
  Kd: 1.15 nM
[13]
  Kd: 0.33 nM
[14]
  EC50: 0.16 nM

B3: mAb2xCD28supxCD3mid IgG1 NNSA (other)
heavy 1: QVQLVQSGAEVVKPGASVKVSCKASGYTFTSYYIHWVRQAPGQGLEWIGSIYPGNVNTNYAQKFQGRATLTVDTSISTAYMELSRLRSDDTAVYYCTRSHYGLDWNFDVWGKGTTVTVSSSQVQLVESGGGVVQPGRSLRLSCAASGFTFTKAWMHWVRQAPGKQLEWVAQIKDKSNSYATYYADSVKGRFTISRDDSKNTLYLQMNSLRAEDTAVYYCRGVYYALSPFDYWGQGTLVTVSSRTASTKGPSVFPLAPSSKSTSGGTAALGCLVKDYFPEPVTVSWNSGALTSGVHTFPAVLQSSGLYSLSSVVTVPSSSLGTQTYICNVNHKPSNTKVDKKVEPKSCDKTHTCPPCPAPELLGGPSVFLFPPKPKDTLMISRTPEVTCVVVDVSHEDPEVKFNWYVDGVEVHNAKTKPREEQYNNASRVVSVLTVLHQDWLNGKEYKCKVSNKALPAPIEKTISKAKGQPREPQVCTLPPSRDELTKNQVSLSCAVKGFYPSDIAVEWESNGQPENNYKTTPPVLDSDGSFFLVSKLTVDKSRWQQGNVFSCSVMHEALHNHYTQKSLSLSPG
light 1: DIVMTQTPLSLSVTPGQPASISCKSSQSLVHNNANTYLSWYLQKPGQSPQSLIYKVSNRFSGVPDRFSGSGSGTDFTLKISRVEAEDVGVYYCGQGTQYPFTFGSGTKVEIKGQPKAAPDIQMTQSPSSLSASVGDRVTITCQASQNIYVWLNWYQQKPGKAPKLLIYKASNLHTGVPSRFSGSGSGTDFTLTISSLQPEDIATYYCQQGQTYPYTFGQGTKLEIKTKGPSRTVAAPSVFIFPPSDEQLKSGTASVVCLLNNFYPREAKVQWKVDNALQSGNSQESVTEQDSKDSTYSLSSTLTLSKADYEKHKVYACEVTHQGLSSPVTKSFNRGEC
heavy 2: QVQLVQSGAEVVKPGASVKVSCKASGYTFTSYAMHWVKEAPGQRLEWIGYIYPGQGGTNYNQKFQGRATLTADTSASTAYMELSSLRSEDTAVYFCARTGGLRRAYFTYWGQGTLVTVSSASTKGPSVFPLAPSSKSTSGGTAALGCLVKDYFPEPVTVSWNSGALTSGVHTFPAVLQSSGLYSLSSVVTVPSSSLGTQTYICNVNHKPSNTKVDKKVEPKSCDKTHTCPPCPAPELLGGPSVFLFPPKPKDTLMISRTPEVTCVVVDVSHEDPEVKFNWYVDGVEVHNAKTKPREEQYNNASRVVSVLTVLHQDWLNGKEYKCKVSNKALPAPIEKTISKAKGQPREPQVYTLPPCRDELTKNQVSLWCLVKGFYPSDIAVEWESNGQPENNYKTTPPVLDSDGSFFLYSKLTVDKSRWQQGNVFSCSVMHEALHNHYTQKSLSLSPG
light 2: DIVLTQSPATLSLSPGERATISCRASQSVSSYGQGFMHWYQQKPGQPPRLLIYGASSRATGIPARFSGSGSGTDFTLTISPLEPEDFAVYYCQQNKEDPWTFGGGTKLEIKRTVAAPSVFIFPPSDEQLKSGTASVVCLLNNFYPREAKVQWKVDNALQSGNSQESVTEQDSKDSTYSLSSTLTLSKADYEKHKVYACEVTHQGLSSPVTKSFNRGEC
notes: also called CD38VH1×CD28sup×CD3mid IgG1 NNAS
[2]
  binding result: binds

B4: anti-CD28sup antigen binding domain (antibody, V domains shown)
VH: QVQLVQSGAEVVKPGASVKVSCKASGYTFTSYYIHWVRQAPGQGLEWIGSIYPGNVNTNYAQKFQGRATLTVDTSISTAYMELSRLRSDDTAVYYCTRSHYGLDWNFDVWGKGTTVTVSS
VL: DIQMTQSPSSLSASVGDRVTITCQASQNIYVWLNWYQQKPGKAPKLLIYKASNLHTGVPSRFSGSGSGTDFTLTISSLQPEDIATYYCQQGQTYPYTFGQGTKLEIK
notes: also called super agonist, "sup"
[15]
  binding result: binds

B5: anti-CD28cvn antigen binding domain (antibody, V domains shown)
VH: QVQLQESGPGLVKPSQTLSLTCTVSGFSLSDYGVHWVRQPPGKGLEWLGVIWAGGGTNYNPSLKSRKTISKDTSKNQVSLKLSSVTAADTAVYYCARDKGYSYYYSMDYWGQGTTVTVSS
VL: DIVLTQSPASLAVSPGQRATITCRASESVEYYVTSLMQWYQQKPGQPPKLLIFAASNVESGVPARFSGSGSGTDFTLTINPVEANDVANYYCQQSRKVPYTFGQGTKLEIK
notes: also called anti-CD28evn; conventional agonist, "cvn"
[15]
  binding result: binds
